Assay: protein stability index of a GFP-peptide fusion (GPS, HEK-293T) (PSI 1-6); higher = more stable
Conditions: c terminus: native
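Also: lentivirally expressed fusion library, cells FACS-sorted into six equal-sized GFP/DsRed ratio bins, PSI computed from sequencing read fractions per bin weighted by bin number.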

**Q.** With CQPISFSGFGAEDDDLGGLGLGPK [POLD2 addK] as the protein, how does the protein stability index (parent: NP_006221.1) read?
**A.** Its protein stability index is 4.81.

**Q.** With DGWIRVSSDNVADLHEKYSGSTPK [PSMB5 addK] as the protein, how does the protein stability index (parent: NP_002788.1) read?
**A.** Its protein stability index is 4.81.

**Q.** For EQRNSRWNTVLRAVKAKTHHLEPK [TRPA1 addK], which protein stability index (parent: NP_015628.1) is on record?
**A.** The protein stability index was 5.03.

**Q.** With LPALFTDLYSQEITAEEAREALPK [SNF8 addK] as the protein, how does the protein stability index (parent: NP_009172.2) read?
**A.** The protein stability index was 5.17.

**Q.** Which protein stability index (parent: NP_116010.1) does the source give for HSLRAVSTDPPHHDHHDEFCLMPK [BEX2 addK] here?
**A.** The protein stability index was 4.67.

From the supplement of paper PMC10567573
